Measured values from IntAct's records for PubMed 19966303.

Assays:
ypk1_yeast YPK1 = ypk1_yeast YPK1 (UniProt P12688)
atc5_yeast DNF1 = atc5_yeast DNF1 (UniProt P32660)
atc5_yeast DNF1, sequence (P32660 whole entry): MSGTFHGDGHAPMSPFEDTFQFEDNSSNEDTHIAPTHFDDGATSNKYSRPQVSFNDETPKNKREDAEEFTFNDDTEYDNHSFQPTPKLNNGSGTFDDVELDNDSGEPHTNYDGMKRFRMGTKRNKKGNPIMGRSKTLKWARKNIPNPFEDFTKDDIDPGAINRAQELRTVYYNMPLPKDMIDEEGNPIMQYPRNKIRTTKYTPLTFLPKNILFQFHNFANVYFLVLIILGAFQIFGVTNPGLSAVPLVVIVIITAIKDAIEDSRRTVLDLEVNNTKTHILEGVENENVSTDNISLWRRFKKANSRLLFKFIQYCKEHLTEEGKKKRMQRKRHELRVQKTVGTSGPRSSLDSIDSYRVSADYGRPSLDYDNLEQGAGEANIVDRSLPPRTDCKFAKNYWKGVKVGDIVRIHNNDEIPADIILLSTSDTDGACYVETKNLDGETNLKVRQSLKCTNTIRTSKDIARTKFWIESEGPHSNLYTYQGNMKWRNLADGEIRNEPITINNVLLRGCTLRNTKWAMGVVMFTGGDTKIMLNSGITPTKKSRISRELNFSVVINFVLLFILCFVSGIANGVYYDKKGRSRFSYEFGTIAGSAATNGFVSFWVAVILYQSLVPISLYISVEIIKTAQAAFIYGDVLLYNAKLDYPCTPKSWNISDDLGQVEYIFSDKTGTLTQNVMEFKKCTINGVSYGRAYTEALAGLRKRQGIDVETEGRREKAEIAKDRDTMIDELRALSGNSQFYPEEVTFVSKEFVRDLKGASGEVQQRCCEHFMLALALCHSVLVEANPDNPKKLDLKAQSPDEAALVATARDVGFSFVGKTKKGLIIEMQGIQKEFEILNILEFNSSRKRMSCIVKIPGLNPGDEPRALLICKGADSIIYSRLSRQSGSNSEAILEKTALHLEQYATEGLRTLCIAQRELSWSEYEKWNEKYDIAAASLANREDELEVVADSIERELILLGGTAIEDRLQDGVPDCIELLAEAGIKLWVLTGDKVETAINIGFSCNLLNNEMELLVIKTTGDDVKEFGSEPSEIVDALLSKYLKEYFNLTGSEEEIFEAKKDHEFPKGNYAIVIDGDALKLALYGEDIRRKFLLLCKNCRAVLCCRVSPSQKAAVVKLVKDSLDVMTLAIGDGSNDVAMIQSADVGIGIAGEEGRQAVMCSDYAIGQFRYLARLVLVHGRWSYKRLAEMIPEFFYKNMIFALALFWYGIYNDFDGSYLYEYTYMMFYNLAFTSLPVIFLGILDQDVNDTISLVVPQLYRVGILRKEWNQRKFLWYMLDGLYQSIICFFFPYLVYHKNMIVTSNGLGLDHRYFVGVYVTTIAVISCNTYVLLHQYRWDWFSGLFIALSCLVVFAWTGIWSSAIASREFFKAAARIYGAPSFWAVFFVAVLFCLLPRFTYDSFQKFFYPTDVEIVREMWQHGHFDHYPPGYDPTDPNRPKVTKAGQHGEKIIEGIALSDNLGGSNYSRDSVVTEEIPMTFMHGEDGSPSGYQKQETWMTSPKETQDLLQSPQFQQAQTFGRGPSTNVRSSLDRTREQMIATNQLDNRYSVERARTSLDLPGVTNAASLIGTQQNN

ypk1_yeast YPK1, sequence (P12688 whole entry): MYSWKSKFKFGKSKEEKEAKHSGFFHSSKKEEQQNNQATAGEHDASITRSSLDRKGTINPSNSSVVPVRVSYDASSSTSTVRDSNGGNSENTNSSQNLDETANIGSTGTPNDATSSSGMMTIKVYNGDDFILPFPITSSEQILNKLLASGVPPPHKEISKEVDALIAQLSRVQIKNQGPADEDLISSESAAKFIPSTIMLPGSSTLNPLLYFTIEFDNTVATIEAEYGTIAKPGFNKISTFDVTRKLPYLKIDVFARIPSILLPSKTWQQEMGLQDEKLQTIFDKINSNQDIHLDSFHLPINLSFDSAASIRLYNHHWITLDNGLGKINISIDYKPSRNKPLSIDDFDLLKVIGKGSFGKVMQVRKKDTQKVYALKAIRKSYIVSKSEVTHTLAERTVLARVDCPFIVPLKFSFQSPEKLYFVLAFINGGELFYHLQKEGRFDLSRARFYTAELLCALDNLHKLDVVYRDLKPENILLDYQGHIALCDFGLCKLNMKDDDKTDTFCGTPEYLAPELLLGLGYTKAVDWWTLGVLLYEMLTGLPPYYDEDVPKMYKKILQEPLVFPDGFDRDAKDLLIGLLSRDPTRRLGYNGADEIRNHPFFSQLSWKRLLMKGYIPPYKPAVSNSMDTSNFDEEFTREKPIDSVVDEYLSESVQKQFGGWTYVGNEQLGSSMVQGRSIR

Flippase kinase 1 (Saccharomyces cerevisiae), P53739 D621A
effect of a mutation on the interaction (ypk1_yeast YPK1): disrupting interaction
effect of a mutation on the interaction (atc5_yeast DNF1): disrupting interaction
